Data on three molecules can be found in US7179464 (Kyowa Kirin, dated 2007).

In assay [1] the target is T1, human IL-5R α chain expressed on cells (human, UniProt Q01344 21-420).
T1 construct: whole, on cells; also called hIL-5R α; CTLL-2(h5R)
T1 sequence (looked up): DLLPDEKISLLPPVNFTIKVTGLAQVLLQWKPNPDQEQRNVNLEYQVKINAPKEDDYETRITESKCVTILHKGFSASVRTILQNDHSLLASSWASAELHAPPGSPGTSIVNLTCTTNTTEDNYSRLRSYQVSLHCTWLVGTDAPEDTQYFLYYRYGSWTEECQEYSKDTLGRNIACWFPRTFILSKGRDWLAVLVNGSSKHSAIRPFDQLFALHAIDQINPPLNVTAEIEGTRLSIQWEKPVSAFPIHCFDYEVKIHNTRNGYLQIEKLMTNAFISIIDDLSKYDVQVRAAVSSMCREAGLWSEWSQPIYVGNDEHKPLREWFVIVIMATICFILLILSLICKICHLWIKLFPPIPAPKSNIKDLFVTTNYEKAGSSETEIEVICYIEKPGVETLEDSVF
The experiment in a line: flow cytometry on CTLL-2(h5R) cells, antibody at 10 µg/ml. The method, then:
(§1) Briefly, 5 ×10^5 cells obtained by transfecting a human IL-5R gene into CTLL-2 cells (ATCC TIB 214) [hereinafter referred to as "CTLL-2(h5R)"] [J. Exp. Med., 177, 1523 (1993)] or 5 ×10^5 CTLL-2 cells as a control were suspended in an immunocyte staining buffer (PBS containing 1% BSA, 0.02% EDTA and 0.05% sodium azide) and dispensed into a round bottom 96-well plate (100 μl/well). After centrifuging at 350×g for 1 minute at 4° C., the supernatant was discarded. Then, 50 μl of the immunocyte staining buffer containing 10 μg/ml of an hIL-5R α antibody were added to each well and reacted at 4° C. for 30 minutes. After the reaction, the immunocyte staining buffer was added (200 μl/well) and centrifuged at 350×g for 1 minute at 4° C. and then the supernatant was removed to wash the cells. The washing operation was further repeated twice. Thereafter, 50 μl of the immunocyte staining buffer containing FITC-labeled anti-mouse immunoglobulin antibody or FITC-labeled anti-human immunoglobulin antibody (both manufactured by Wako Pure Chemical Industries, Ltd.) diluted 30 folds with a staining buffer were added to each well and reacted at 4° C. for 30 minutes. After the reaction, a similar washing operation was repeated three times. Then, the cells were analyzed with a flow cytometer (Coulter).

For assay [2], the target named is T1, human IL-5R α chain expressed on cells. The experiment in a line: immunocyte staining, flow cytometry on CTLL-2(h5R) cells. The method, then: as §1

B1: anti-human IL-5R α chain human CDR-grafted antibody KM8399 (antibody, human IgG1, V domains shown)
VH: EVQLVQSGAEVKKPGASVKVSCKASGYTFTSYVIHWVRQRPGQGLAWMGYINPYNDGTKYNERFKGKVTITSDRSTSTVYMELSSLRSEDTAVYLCGREGIRYYGLLGDYWGQGTLVTVSS
VL: DIQMTQSPSSLSASVGDRVTITCGTSEDIINYLNWYQQKPGKAPKLLIYHTSRLQSGVPSRFSGSGSGTDFTLTISSLQPEDFATYYCQQGYTLPYTFGQGTKVEIK
notes: also called HV.3LV.0; pKANTEX1259HV3LV0
In the case of B1, the binding result in assay [1] is on record as “binds”.

B2: anti-human IL-5R α chain human CDR-grafted antibody KM9399 of human antibody IgG4 subclass (antibody, V domains shown)
VH: EVQLVQSGAEVKKPGASVKVSCKASGYTFTSYVIHWVRQRPGQGLAWMGYINPYNDGTKYNERFKGKVTITSDRSTSTVYMELSSLRSEDTAVYLCGREGIRYYGLLGDYWGQGTLVTVSS
VL: DIQMTQSPSSLSASVGDRVTITCGTSEDIINYLNWYQQKPGKAPKLLIYHTSRLQSGVPSRFSGSGSGTDFTLTISSLQPEDFATYYCQQGYTLPYTFGQGTKVEIK
notes: Same V regions as KM8399 (built from pKANTEX1259HV3LV0); also called pKANTEX1259HV3LV0γ4; transformant KM9399 (FERM BP-5647)
Regarding B2, the binding result in assay [1] is listed as “binds”.

B3: anti-human IL-5R α monoclonal antibody KM1257 (antibody, V domains shown)
VH: EVQLVESGGDLVKPGGSLKLSCAASGFTFSDYGMAWIRQISDKRPEWVAAISSGGSYIHFPDSLKGRFTVSRDNAKNTLYLEMSGLKSEDTAMYYCARRGFYGNYRAMDYWGQGTSVTVSS
VL: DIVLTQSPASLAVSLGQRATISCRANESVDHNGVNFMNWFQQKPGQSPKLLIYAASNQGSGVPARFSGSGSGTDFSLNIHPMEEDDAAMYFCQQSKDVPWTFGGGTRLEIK
notes: Mouse IgG1; also called hybridoma KM1257 (FERM BP-5133)
In the case of B3, the binding result in assay [2] is recorded as “binds”.
